We go through twelve sequences from a protein production outcome set (Wang et al. 2014).
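Note: failed if final PepcDB status was selected cloned or expressed and not failed if soluble or beyond.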

This data set in a line: label from the status in PepcDB records.
As to “MNGRMSLFLRNSIGVMAAMLAGVATPVANAMDNSLASGVVRFALDTGEASSVVGLAMKLEGESADYLQARLMLASGQHDEARAGFEGVFNGASHRGEAALALAEMAQEDGDLTGAENWYQQARRTGYGEVAQKALLGLAELVRIQGKTDAAGQYLARMEDGYWAAVGYMNLAADFARDDLDSSRALVSLRVAMAMAAKDTDTSRSRALLDQLNLRAGYLALGSDDYDKAIDFLEKVSLESYHTPQALYLHGLALSSKGNHRAAMQSWHRAKKFPLAFPGVSDAWIGMGRGYDLSGYPGQAGESWLAANAAYEGERVTLGKLSERITAEGAYKALVQDARSDDIQWFLADNRTLTQPRMAYLLRFMEEPGAQVAVRRVARLDEMVATLDASKYNLEVFIQALEVFMASAGSGGVAPQTAGLEQQQSDLESRLNGLVEQAATPAQVAELRQLKQSLAGAGRRMGALNQQVVQRPERLETVLDDAGALRDATKDLRYKTLSLREQAARELDALALAFVKKQTQRMTHALDKTEQQIAHLYEYLALENLGEGAQ”, the protein production entry is recorded as “failed”.
“MNGRRERAQGTEWAGDPAGCGTMERMPSALPDGEPVPADGALPASALAGAADRPLGFYLHVPYCATRCGYCDFNTYTATELRGTGGVLASRDNYADTLVDEVRLARKVLGDDPREVRTVFVGGGTPTLLAAGDLVRMLGAIRDEFGLAPDAEITTEANPESVDPAYLATLRAGGFNRISFGMQSAKQHVLKILDRTHTPGRPEACVAEARAAGFDHVNLDLIYGTPGESDDDWRASLDAALGAGPDHVSAYALIVEEGTQLARRIRRGEVPMTDDDVHADRYLIAEEALSAAGYDWYEVSNWATSDAGRCLHNELYWRGADWWGAGPGAHSHVGGVRWWNVKHPGAYAGALAAGKSPGAGREILTDEDRRVERILLELRLREGVPLSLLREAGLAASRRALSEGLLQEGPYEAGSAVLTLRGRLLADAVVRDLVD”: the protein production result was “failed”.
On to “MNGSNHMKNKTLVISGATRGIGKAIFVRFAQSGVNIAFTYNKNVEEANKIIEDVEQKYSIKAKAYSLNVLEPEQYTELFKQIDADFDRVDFFISNAIIYGRSVVGGFAPFMRLKPKGLNNIYTATVLAFVVGAQEAAKRMQKIGGGAIVSLSSTGNLVYMPNYAGHGNSKNAVETMVKYAAVDLGEFNIRVNAVSGGPIDTDALKAFPDYVEIKEKVEEQSPLKRMGNPNDLAGAAYFLCDETQSGWLTGQTIVVDGGTTFK”, for which the protein production entry was “failed”.
Take “MNHRDKQIDSGSGSGENRRTYDCDICKRGFTNPQALGGHNNIHRRERERYPSSSSSSHSFPFSLPLPSQSPSSSTNFTNPPPYFPTIESYLHQGSQPPINPSHNTQYFGSSSSSRGGGRFAQGASHDLNLSLGLGSMNEDDDTHRSPPETGGSQPQDGDLDLDLRLGGHRHH”: the protein production entry is “failed”.
For the sequence “MNHRLAGIISPLGHITTDPIRSSSVNPSSPVYYKTIVNHFKSQTGNHVSPGLTNQEISAVESSHGFSFPLDLRSILQTGLPVGTNFPNWRTGSNRNNLLLPLLNLSQHVVRNGFWVDSWGIRPGNDAEALSLVKKLIEIAPVLVPVYGDFYVPSTTPNLAGNPVFQIDGDGVRELSCDVVGFLKGIGRSETPTEDRRRRRRPRRVEFWSDVAEGWRFVVARDYTRDWWSALGFEGLTACLDDAFWKLREAGWTEDDVRDMMMMDSVDQNTCIQQQTQTQSRDVVYAFGDEGMNERDRDTCTEDEDHQKGEVTTLRHLLLYDRLMS”, the protein production entry is listed as “failed”.
“MNHWSMPPNPEKALMLAQRAVAVFVYDAVRLEGINFTLPEVQTLLQGVTVGGHRLSDQQIAVNQGEAWKLLFQMIRDGRFELTPDCAMALHGVAAKEEALEWGCFRSGSVLIAGTEYEPPAASELPTRFDRMIDELQHMDDVHDQAVHLFLTMARCQFFYDVNKRMGRFMMNGHLLSNGYPAINIPASSQLEFNELMLRFYDSGDQREMNAFVRSCMDERVVLIMKEELEHHHHHH”: the protein production result is recorded as “failed”.
To “MNIFIAGLNYNMSEAELGELFAEYGEVVSVKIIMDRETGRSKGYGFVEMADDEAGDKAIAALNEVDMDGKTLSVSVARPREERPRRSYGNNGGGGYRGGNNSRGGGYGGSRGDNGYGGGRNRY” belongs “failed”; to “MNIGRHLLLVLFGWLPVRLGFAADAISVVDKQPVNWVAITMFAVFVLITLWITQWAAKKTRSSADFYTAGGTVTGFQNGLAIAGDYVSAASFLGITSAVMANGYDGMLYAIGFLVGWPILTFLIAERLRNLGKYTFADVVAYRFAATSVRLFASVSTLVVVLCYLIAQMVGAGALIRLLFGLDYWVAMVLVGGLMMVYVLFGGMAATTWVQIIKAVLLLIGATFMAVMIMRRFGFNFEGLFASAVEVKTQIAMAGGKSGEEAKALGLSIMAPGSFIKDPISAISLGIALVFGTAGLPHILMRFFTVPDARQARHSVLWAITWIGYCYILMFIIGFGAIVLVLANPQYADIASGTIRGGQGAANMAAVLVAKVVGGNVFMGFVSAVAFATILAVVAGLALSGASAVSHDVYAMVIKQGKPSSDTELLVSRVTTAVLGVVAVLLGIVFQKQNVAFMVSLAFAIAASANFPVLVLSLFWKNCTTRGAVIGGFLGLISSLVLTVLSPSVWVDTLGHSVDSVRFPYTSPALFSMTIGFVGIWLFSVLDRSGRAAKERVAFKAQQVRAETGLGASKMSPN”, “failed”.
As for “MNIKLKRTLISLVAFSMTCLPFVGTGSSVKAASNDATINVAAKHQTIRGFGASSAWCGALSDTCMDTLYKNAGLDILRVRIAPNEGWNRGDYRAWADELSNAKKVRARGGIVFATPWTPPASMKTNNTTTGANKGSLKPSSYAAYAAYLKTFVKYMSDNGAPLYALSLQNEPDWAPDYDACTWTAQQFHDFLKQYGASLSSTIKIIMPESLGFNPAMSDPTLNDPTTAQYVSIIGGHLYGSPIRDYPLARNKGKDIWMTEHYLEGNDPGTCVKLAKEIHDCMTIGNMNAYVYWWISGDQNGLYNTRTNETYKKTYVMGQFSKFIGNGYSRVDATNSPQSNVYVSAYTGNNKVVIVAINQGTYPVNQSFNVQNSTVSNVSSWVSSGTLNMAKTNSNISAANGRFNASLPAQSVTTFVADLNSTNPTTDPTTNPTPGSTVTLNNGWYYIKNINAQKYLQVASNTGKAGQNVELGSGSGAAGQKWYLTNTGDGYVTLKSALGNYMLDVSYGENKDGSNIQIFNAYSGDAQKFSVKASSKDGQYFVSTKSSNGTKVLDDYNFGTADGTNVCQWTYGGNANQLWAFEPTNN”, the protein production result is “failed”.
With “MNIKSAFIRKRGEKFYVYVEYIEETTGKIKQKSYGSYEKKKDAEKHLIEIKSTINNNKFVAPKDITFVERCYKYIDMNKNNWSPYTVTSTKSWVKNYIEPFFKNLKLTEVNPSSVQAFVNYNFNNSTFTSAKVRYSFLSSVIREAYRLREIQENSCDFIKLPSKEKYSTNEIYNREEVLLLIEKLLGNNIEIPILLMLLLGLRMGEATGLRWSDVDLDNNLINVNQILVYSNGKISFKEPKTPKSKRALSAPKELIEKLKIEKLRQSKLKLQGILENKNNLVCLNTNLNPFLPSSLRKTFHNFTKKNNLKKIRIHDLRHTSATLLLLGGTNMKVVSERLGHTDIKITMNRYSHVLKEMDKEASDNLSELLFK”, the protein production result was “failed”.
Turning to “MNILTLMETFSAVVEAGSFTGAAEKLGLSKSFVSKQVSTLEVELGCRLLYRTTRTLSLSDEGSQFYNHCKIIMAEAENARAEVMDRQGAPRGKIRMTIPQSLIISGFGQLLIDFQLQYPEIKLEVIASGRIEDLVKEGIDIALRVGQLEDSSLISRRLMDCTFQVVASSDYIKKWGEPFQPADLMQHNCLIYGDSKINKGWPFRSPSGESITVKAKGNFISNDGGLVVEGMLNGLGIGFGPSFLFNEHVEKGRLKLLLSDYYQPPTAISALYPLNRNLSRRIRLLIDYLSERLSV”, the protein production entry was “not failed”.
“MNINEKAIEMFEQNKYEEAMELFQQAVHKSRDVQSLNNLAWMYFYEEENDEKALELIREVVKLNPSSYFPYNILGEIYIKQKKWEEAKEVLQKSISIQPSDEAYHNVAVAHYNLGELEKASDFFLRVAGDSDYIMYSYVKCLIDLERTTEAKEKLDTFNRESDNFLGEINVADLYVELNCYKEAIEWFEKGYKECWKSPNWIGRFVYALYKTNNFSRINEVIRECIEAKTAEIEDVQNEEVEENWTENDKKELIEEYTEENNCYKTMVERIKSGYVPGLEFETDYIGACYLFGCKRHNHLEYEK”: the protein production entry was “failed”.
